For test [1], the target named is human GPRC5D protein (human) (UniProt Q9NZD1). Put plainly: FACS on RPMI-8226 cells; negative control.
For test [2] the target is unchanged. The test can be described thus: FACS on MM.1S cells; negative control.
For test [3] the target is unchanged. Put plainly: FACS on NCI-H929 cells; negative control.

Chain of human GPRC5D protein (human) (Q9NZD1 whole entry): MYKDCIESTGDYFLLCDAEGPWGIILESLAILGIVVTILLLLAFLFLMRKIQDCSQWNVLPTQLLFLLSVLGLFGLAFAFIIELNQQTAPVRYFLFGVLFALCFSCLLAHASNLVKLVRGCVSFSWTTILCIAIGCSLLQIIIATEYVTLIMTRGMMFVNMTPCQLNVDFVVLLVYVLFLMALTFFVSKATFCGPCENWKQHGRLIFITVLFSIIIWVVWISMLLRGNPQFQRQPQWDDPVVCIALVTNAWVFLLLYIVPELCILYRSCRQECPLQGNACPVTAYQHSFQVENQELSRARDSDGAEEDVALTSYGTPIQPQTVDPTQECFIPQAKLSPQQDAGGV

“hIgG1 monoclonal antibody (Biointron, Cat. No. B117901)”: the Top(MFI) in test [1] was 3860 MFI; in test [2], 6770 MFI; in test [3] it was 4180 MFI.

The record behind these values is EP4703384A1.
